Data as given in the DeepSol protein solubility set.

Test: soluble on expression in E. coli; label from the status in PepcDB or PDB records
With “MGSDKIHHHHHHMEQSATPACSICFPDSICRISPSSPLASPNGDEYHMKIALLCSGLGNVQRGHEIFVRDLFDMLKGSVDITLFKGGGEPAPNELVIDNVSRNAPSLQNIHLAVSPRWKVAMQEQERIRIETETFAHAALRPLLEGGYDIIHCLEQEVCNRLYGFRHLFAHTPKFLFSNGGAIPAAKLSNCDFVQEHTEYNLQHSAREKAFCIPHGVDIQRFNPSISSDFRARYGIAEDAFVVISVGIICYWHKRMDYLIKEVAQIPEAHLLIVGQECADTPAIKALGEKLMPGRITFTKMPHDELPQAYAAADVFALGSLFETFGIVYIEALAMGLPVFCTEHPNQRSIVREGVFLDIKQAGALRDALLKRDPAQMRYLRERGPQIARETYALEKLKSAYIEHYQRIAASEVSLPRYTFKTKLQDNVRSLYRRLSRG” the “soluble on expression in E. coli” value was “not soluble”.
In the case of “MCKNPISIIIRIQHNIKVLPEILKACEQLHPLEIILTINGYIDDSIDIAQSYNCKIITLEEPSELNNCYVIGATKAKGKYLLFLDANYIIQSSLLTQFLQPLLDESADIVLNNLDDFFYQKQKPTIEMIWQQVTNHFFHRPDLHVNSLLFPPYAITKEILDAITPESLLNPILAQMKIIKNKFRISNHFKISIPQIPSFPSKQLIRYHLEAIENWVNILQDSRGNYTDNNRRRDIILELQNGEQRAIPKIITGKKFYSNTYGNKQLSIIIPVQNEEKTIESIIFEVQKLKPLEIIIIVNGSTDKTEELAKNCGATVITYKEALGIDTGRAVGAYFAKGDILLFIDGDFLIPSSDLLPFVQSVQNGTDLALNKLEHYYMYRVPYTIVTACKHVVNLACNRKDLGMGSTTAVPHAFSRKCIDTIGFDSLLSPTLSQVKTILAGLHVQNVHSIDVDKINRVRPEKHFSQEGYLSLATQQIIGDHIEAISYLIEQKRNTEYFLEHHHHHH”, the “soluble on expression in E. coli” value is reported as “not soluble”.
With “HMGARASVLSGGELDKWEKIRLRPGGKKQYKLKHIVWASRELERFAVNPGLLETSEGCRQILGQLQPSLQTGSEELRSLYNTIAVLYCVHQRIDVKDTKEALDKIEEEQNKSKKKAQQAAADTGNNSQVSQNY” the “soluble on expression in E. coli” value was “soluble”.
With “MARNAEKAMTALARFRQAQLEEGKVKERRPFLASECTELPKAEKWRRQIIGEISKKVAQIQNAGLGEFRIRDLNDEINKLLREKGHWEVRIKELGGPDYGKVGPKMLDHEGKEVPGNRGYKYFGAAKDLPGVRELFEKEPLPPPRKTRAELMKAIDFEYYGYLDEDDGVIVPLEQEYEKKLRAELVEKWKAEREARLARGEKEEEEEEEEEINIYAVTEEESDEEGSQEKGGDDSQQKFIAHVPVPSQQEIEEALVRRKKMELLQKYASETLQAQSEEARRLLGY” the “soluble on expression in E. coli” value was “soluble”.
With “MSDNLVLPTYDDVASASERIKKFANKTPVLTSSTVNKEFVAEVFFKCENFQKMGAFKFRGALNALSQLNEAQRKAGVLTFSSGNHAQAIALSAKILGIPAKIIMPLDAPEAKVAATKGYGGQVIMYDRYKDDREKMAKEISEREGLTIIPPYDHPHVLAGQGTAAKELFEEVGPLDALFVCLGGGGLLSGSALAARHFAPNCEVYGVEPEAGNDGQQSFRKGSIVHIDTPKTIADGAQTQHLGNYTFSIIKEKVDDILTVSDEELIDCLKFYAARMKIVVEPTGCLSFAAARAMKEKLKNKRIGIIISGGNVDIERYAHFLSQ” the “soluble on expression in E. coli” value was “soluble”.
With “MQNDMSVVLRAGKLLIESGAEVYRVEDTMKHFAKALQIENFEAYVVSSSIIASGINRYGKQEAKVCNTDGVTANLGRLEAVNNLSRQIAKQDLVSPEEIVKQLDLIEHQKD” the “soluble on expression in E. coli” value was “not soluble”.
With “MGSDKIHHHHHHMFEMGIQELVKTIDTNINHMISLSVLNLAQLGIKYGIFKAVASRPSYEELLSQIPVPNKPLLKKLIEHLKALGIIEETPSNLILNGFSYVLKFPKEDYMLLLSDWIPIWEEIYKMVDFALISYSHPYVLMDFDKDADFWDIRLSSSFNKTYRDAIINLGEIREDSYILDLGCGSVSPAYFGKFISEDGKYVGVDYSPGLLEIARERVERNGLPAELKEMDVSLIRTRSKYDVAIMSFLLEYVRDREEVLGKVLEALDSGGKLIIVEAFRDEFENIQAMEFFESLNRSFVGYPAKAEIKKAILREGFDVSFEDYGKSILVVRKL” the “soluble on expression in E. coli” value was “not soluble”.
For “MKTQQREQALAIYQQHQGKITNRAIADTIGVSAKTIGIWKKQDKWKEALFSASKNEQKQRPINNDELNERQRLFCLYYVKSFNATQSAIKAGYSPDSAHVTGSRLLKNEKVAAEIRRIKKEMVNEMFIEAMDVLQVYIKIAFADITDYVTFGKKEVQAVGKSGPLFDEDDNPIMKEISFVDVKDSGLVDGTIVTEAKLGKEGIAIKLADKMKALEKLSLYFDLFPDQFKQKIENEKLKLAKQKAEKTDDSQEPIEIMIKRKERKS”, the “soluble on expression in E. coli” value was “not soluble”.
With “MTTAAKTETEDPTARRILDAALEQFTVFGLRRSSMDDVAKRAGVSRVTVYRRFGTKDALVEQTLLRENSRFFQRLDQAVAALPTMEERVVEGFVVALRHTRAHPLFGGLLRLEPEVVLPYLTVHGGSSLAATVDYLTGHLRRAQQAEGRPGDDPRPVAELMVRVAVSFLLNPASCIEMDDEDQARAFARRYLAPLLNA” the “soluble on expression in E. coli” value was “not soluble”.
With “MSLMPRIKPLLVLCAALLTVTPAASADVNSDMNQFFNKLGFASNTTQPGVWQGQAAGYAYGGSLYARTQVKNVQLISMTLPDINAGCGGIDAYLGSFSFINGEQLQRFVKQIMSNAAGYFFDLALQTTVPEIKTAKDFLQKMASDINSMNLSSCQAAQGIIGGLFPRTQVSQQKVCQDIAGESNIFADWAASRQGCTVGGKSDSVRDKASDKDKERVTKNINIMWNALSKNRMFDGNKELKEFVMTLTGSLVFGPNGEITPLSARTTDRSIIRAMMEGGTAKIYHCNDSDKCLKVVADTPVTISRDNALKSQITKLLASIQNKAVSDTPLDDKEKGFISSTTIPVFKYLVDPQMLGVSNSMIYQLTDYIGYDILLQYIQELIQQARAMVATGNYDEAVIEHINDNMNDATRQIAAFQSQVQVQQDALLVVDRQMSYMRQQLSARMLSRYQNNYHFGGSTLEGHHHHHH” the “soluble on expression in E. coli” value was “not soluble”.
For “MGSDKIHHHHHHMTNPTLAPQSDEYQQIHNGIVQLLDTARTQTVRSINTIMTATYWEMGRRIVEFEQGGEARAAYGEQLIDRLSQDLSQRYKRGFSASNLWQFKKFYLYFQKIEILQTVSGESLHLAQLAKSFPLPWSAYVRLLSVKNPNARTFYEKETLRNGWSVRQLDRQIATQFYERTLLSHDKSAMLQQPAPAEPNVLPEQAIRDPFILEFLNLKDEYSESDLEDALLSHLMDFMLELGDDFAFVGRQRRLRIDDSWFRVDLLFFHRRLRCLLLVDLKVGKFGYADAGQMNMYLNYAKEHWTMPGENPPVGLVLCAGKGAGEAHYALTGLPNTIMASEYKVQLPDEKLLTDELIRSQTMLETQLTRGGSLTTEKN”, the “soluble on expression in E. coli” value was “not soluble”.
For “MRFYNREKELARLMEIATLSEESAHLAVITGRRRVGKTELIRKFAEGRDDFLYFFVSKKKPRVLLDEFRDLLAARVPLLASASFGSFDDFFRALFEITKERPLFIVFDEFQNFQQVDPAVFSTLQDLWDRNKGTIKGTIVCIGSVQTLMREIFEGAKEPLFGRVTARLYVEPLIPDVVATILADHQVDAVRHLPFFFTLFGGIPKYYFLLDRYRLFGKTPAEIIRKFFCETDALLQNEGKDLLVEEFGKNYHLYFSILQVIAGGENQMARIADKSGINVNSISKYLDELTSYYQVIERRLPVTATRQEQKTGRYYLKDPLLRFWFRYIYRNQSLIEIGDEEGLLGKIQADLSTFMGWSFEELIRAMLLKRNDGTVVPFGFTRIGGFWTKRGDVEIDIVALNEEDGAIFFGECKLSGSRFSVADARRLKEKAKAVPWRTGDRREHFVLFCMDDLESDAEQALAAEGVGVVRLRQLLSVPLEHHHHHH”, the “soluble on expression in E. coli” value was “not soluble”.
In the case of “MGHHHHHHSHMEEVLEAAEKIRSMEVRGAARIARFAAETLMKFAEKASDEKFDEEMRFAAETLLNTRPTAVSLYNAINYVMRYSGESVEEKRQSVIRRAREFINWVETAQRKIGEIGEKRIKDGYTVMTHCNSSAALSVIKKAHENGKRVEVIATESRPRWQGHLTVKQLREAGIEVTLIVDSAVRYFINEVDCVVVGADTITANGALINKIGTSQIALAAKEARVPFMVAAETYKFSPKTLFGELVVIEERDAREVAPEEILKLGVKVRNPAFDVTPRDYIDVIITEIGAIPPEMAYIVITERLGYAGIEEEEITLNSRHFD”, the “soluble on expression in E. coli” value is reported as “not soluble”.
In the case of “RRYWVVLDGNFEDYLKKFSAKSRNTLLRKIKRFAELSGGEIDWREYCKPEEMHEFYKLAMEVSQKTYQERLLDCGLPSDQQFQENMLALAAEDNVRGYLLFYQKKPIAYIYCPVHDGIALYEYVGHDPEYQRWSPGTLLQYFALQRMFTASHIKIFDFTEGEGAHKAFFATNNQYCADVYYFRR”, the “soluble on expression in E. coli” value is reported as “not soluble”.
With “MTSAAEITAAVRQLYNTYPFPPEPLLDEPPPGYNWRWSWPAAYSFCTGRYPSQLDVAILDAGCGTGVGTEYLAHLNPQAKITALDLSEAALAIACERCRRSGATNVQFHHLSLEEVAQLGQTFQMINCVGVLHHLPEPQRGIQALADVLAPGGIVHIFVYGEYGRWEIKLMQQAIALLQGSDRHNYREGVAIGRQLFAALPENNRLKKREQERWSLENQRDECFADMYVHPQEIDYTIASLFELIRASGLEFIGFSNPQVWQLERLLGSQPELLQRAQQLDPIQQYQLIECLDPEAMTHFEFFLAKPPLPRHDWAADRELLAAIPWRHPCIDGWPGACVFNCHYEVIHLNQAEQEFLNAASGKATVAELLAQQPDFNLAEVRSLLARHLLLLGVKE” the “soluble on expression in E. coli” value was “not soluble”.
With “MTNPLYTGHPFGTTVTEETLRAIFLPLTQWEDKYRQLILLGKQLPALPDECKAQAKEIAGCENRVWLGFTRSDNGTMHFFGDSEGRIVRGLLAVLLTAVEGKNAAELQARSPLALFDELGLRAQLSASRSQGLNALSEAIVAATHKG” the “soluble on expression in E. coli” value was “not soluble”.
In the case of “MAHHHHHHMNTNGRSAYDMLARMSDEEDDDVPEDLELTFVPASKRREPASSHAVGHHAGNAVPSTLNSPTHSGPAVINPKPRAETVYEQERNAKVRQVLAEQQKTALGVVFSLDAFEAPSPGRYTLAGLQEATGTPAPSCSSAPYNREDQRRGFSQYRGRGGAEGGGRGGPGGGGGPRRYRMPNPNMSGEEQARYIRHRRNMAVIRNALREVDPETLEYMQVTQAPDQLPLNRNCEGFSKPYFSTDRGRGGVDAGGGRSTSSYRGRGGGGGMHGRGGRGFSPYSVGRGTGATRGDGLGRGAGGGCGRSAPFSPYS”, the “soluble on expression in E. coli” value is reported as “not soluble”.
In the case of “MKNFEIVTVTPDHAEQLISMIHELAEFEKMKSSVVNTAEKLRKDIENKAVHGFIAFIGEEPAGMNLFYYAYSTWVGQYLHMEDLYIRPQFRRMGLARTLWKKLAELARDKGIVRLEWAVLDWNKNAIALYDTVDYVNLTKSEGWFTFRMDGAAINKFADE”, the “soluble on expression in E. coli” value is reported as “not soluble”.
For “MSLKLHKGIKEYECKECHRRFAQKVNMLKHCKRHTGIKDFMCELCGKTFSERNTMETHKLIHTVGKQWTCSVCDKKYVTEYMLQKHVQLTHDKVEAQSCQLCGTKVSTRASMSRHMRRKHPEVLAVRIDEGHHHHHH”, the “soluble on expression in E. coli” value was “soluble”.
For “MPMTDLPSAVTNERTEQTNTTNEQQESKGFDYLIVGAGFAGSVLAERLASSGQRVLIVDRRPHIGGNAYDCYDDAGVLIHPYGPHIFHTNSKDVFEYLSRFTEWRPYQHRVLASVDGQLLPIPINLDTVNRLYGLNLTSFQVEEFFASVAEKVEQVRTSEDVVVSKVGRDLYNKFFRGYTRKQWGLDPSELDASVTARVPTRTNRDNRYFADTYQAMPLHGYTRMFQNMLSSPNIKVMLNTDYREIADFIPFQHMIYTGPVDAFFDFCYGKLPYRSLEFRHETHDTEQLLPTGTVNYPNDYAYTRVSEFKHITGQRHHQTSVVYEYPRAEGDPYYPVPRPENAELYKKYEALADAAQDVTFVGRLATYRYYNMDQVVAQALATFRRLQGQPEQGNAE”, the “soluble on expression in E. coli” value was “soluble”.
